This is an account of results in patent US20140105914A1 (ANTITOPE, published 2014).

Changes are numbered by the printed parent chain.

Test [1] deals with T1, human CTLA4 expressed on the surface of T-cells (human, UniProt P16410 36-223).
T1 sequence (looked up): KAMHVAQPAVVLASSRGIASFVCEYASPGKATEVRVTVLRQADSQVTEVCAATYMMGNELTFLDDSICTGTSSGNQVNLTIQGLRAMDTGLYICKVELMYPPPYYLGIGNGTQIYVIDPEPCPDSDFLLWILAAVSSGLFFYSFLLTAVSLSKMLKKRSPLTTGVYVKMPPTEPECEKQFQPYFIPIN
The test is described as follows: cell-based or functional assay.

Test [2] has as its target T1, human CTLA4 expressed on the surface of …. The test is described as follows: flow cytometry on stimulated human CD4+ T cells, antibody at 5 ug/ml. How it is done: In order to determine whether the lead monoclonal antibodies bound to CTLA4 expressed on the surface of T-cells, a flow cytometric analysis was performed. Human peripheral T cells were isolated from human PBMC (peripheral blood mononuclear cells) and stimulated to enhance expression of CTLA4. CD4+ cells were purified from PBMC using a CD4⁺ T Cell Isolation Kit (Miltenyi Biotec, Bisley, UK), plated out in a 24 well plate (1×10⁶ cells/well) in AIM-V Medium (Invitrogen, Paisley, UK) and incubated at 37° C. overnight. Cells were stimulated with lonomycin (1 μg/ml) and PMA (phorbol 12-myristate 13-acetate) (50 ng/ml) and incubated 4 h at 37° C. Cells were washed once in AIM-V medium, fixed in PBS containing 2% formaldehyde for 15 min, and resuspended in FACS buffer (D-PBS containing 1% BSA, 0.05% sodium azide and 0.1% Saponin) at 2×10⁶ cells/ml and incubated 30 min at 4° C.
2×10⁵ cells were stained using either a 1 in 10 dilution of anti-CTLA4-PE conjugated antibody (BNI3) (Abcam, Cambridge, UK) as a positive control or with 5 μg/ml of individual anti-CTLA4 monoclonal antibodies together with a 1 in 50 dilution of anti-mouse IgG-PE conjugated antibody (Sigma). Mouse IgG (Sigma) was also included as separate controls for the different murine isotypes present within the lead monoclonal antibodies. […] Instrument settings were determined by analysis of relevant isotype control antibodies. […]

Test [3] has as its target T2, Recombinant CTLA4-fusion protein comprising the extracellular domain of human CTLA4 fused to the human IgG1 … (human, UniProt P16410 36-161).
T2 construct: extracellular domain; Bought reagent; Coated on ELISA plates at 0.5 ug/ml; also called CTLA4-Fc; CTLA4-Ig; not shown: human IgG1 constant domain (Fc); a Factor Xa site lies between CTLA4 and Fc, since the fusion was cle
T2 sequence (looked up): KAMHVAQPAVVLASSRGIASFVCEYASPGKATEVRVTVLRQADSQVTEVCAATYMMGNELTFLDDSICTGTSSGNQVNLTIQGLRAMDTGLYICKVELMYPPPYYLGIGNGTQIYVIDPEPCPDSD
The test is described as follows: ELISA on coated CTLA4-Fc.

In test [4] the target is T1, human CTLA4 expressed on the surface of …. Put plainly: flow cytometry on CTLA4 expressed on T cells.
In test [5] the target is T2, Recombinant CTLA4-fusion protein …. The test is described as follows: CTLA4 binding ELISA on coated CTLA4-Fc.

B1: lead humanised variant VH5/VK4 anti-CTLA4 antibody (antibody, V domains shown)
VH: QVQLVQSGAELKKPGASVKVSCKASGYTFTSYWINWIRQAPGQGLEWIGRIAPGSGTTYYNEVFKGRVTITVDKSTSTAYMELSSLRSEDTAVYFCARGDYGSYWGQGTLVTVSS
VL: EIVLTQSPATLSLSPGERATLSCSASSSISYMHWFQQRPGQSPRRWIYDTSKLASGVPARFSGSGSGTDYTLTISSLEPEDFATYYCHQRTSYPLTFGQGTKLEIKR
Turning to B1, in test [1], the “IFN-gamma secretion in human mixed lymphocyte reaction (T cell activation), antibody at 150 ug/ml, compared to MDX010” value came to 2 fold.

B2: murine monoclonal antibody 8H5 (subclone 8H5-1B1) (antibody, V domains shown)
VH: QVQLQQSGDDLVKPGASVKLSCKASGYTFTSYWINWIKQRPGQGLEWIGRIAPGSGTTYYNEVFKGKATLTVDKYSSTAYIQLSSLSSEDSAVYFCARGDYGSYWGQGTLVTVSS
VL: QIVLTQSPAIMSASPGEKVTMTCSASSSISYMHWFQQKPGTSPKRWIYDTSKLASGVPARFSGSGSGTSYSLTINSMEAEDAATYYCHQRTSYPLTFGAGTKLELK
notes: Mouse hybridoma antibody with a kappa light chain; also called 8H5-1A1
Regarding B2, the binding result in test [2] and in test [3] was “binds” in each case.

B3: murine monoclonal antibody 3B10 (subclone 3B10-4F7) (antibody, V domains shown)
VH: EVQLQQFGAELVKPGASVKMSCKASGYTFTDYNMDWVRQSHGKSLEWIGNINPNSESTSYNQKFKGKATLTVDKSSSTAYMELRSLTSDDTAVYYCTRDGNRYDAWFAYWGQGTLVTVSS
VL: B2 VL with I29V, S30T, R45L, D49S, K52I, N75S, S76R, H88Q, A99T
notes: Mouse hybridoma antibody with a kappa light chain; also called 3B10-6E3
Consider B3, for which the binding result in test [2] and in test [3] was “binds” throughout.

B4: chimeric 8H5 human IgG1 antibody (antibody, V domains shown)
VH: B2 VH
VL: B2 VL
modifications: Biotinylated when used as the labelled competitor in Example 6.
notes: Gamma 4 versions were also cloned; also called 8H5 chimeric antibody; h8H5 parent IgG1
With B4, the binding result in test [4] and in test [5] was “binds” each time.

B5: chimeric 3B10 human IgG1 antibody (antibody, V domains shown)
VH: B3 VH
VL: B2 VL with I29V, S30T, R45L, D49S, K52I, N75S, S76R, H88Q, A99T
modifications: Biotinylated when used as the labelled competitor in Example 6.
notes: Gamma 4 versions were also cloned; also called 3B10 chimeric antibody; parental 3B10 chimeric antibody
As to B5, the binding result in test [4] and in test [5] was “binds” each time.
